Results as given in a protein production outcome set (Wang et al. 2014).

Experiment: label from the status in PepcDB records

| Sequence | protein production |
| --- | --- |
| MNFQENLAALDLEYLWHPCSQMQEHQNFPIIPIKKAQGIYLYDFNDNAYMDLISSWWVNLFGHNNAYISQQLKNQIDDLEHVLLASFSHKPIITLSQRLCQLTHMDKCFYADNGSSCVEIALKMSYHAHFLKNQTRRKKLFLSLSNSYHGETLGALSVGDVKLYKDTYTPLLLKNLTTPVPKNDHEIENSLNALKRLLDKHSEEICAFIAEPLLQCAGNMHIYSARYLKQAVLLCKQKNIHIIFDEIATGFGRTGSMFAYEQCEIKPDFLCLSKGISGGYLPLSALLTHNEIYNQFYAPYEENKAFLHSHSYTGNALACACANATLDIFEKENVIEKNKALSGFIFNTLQNALKPLMEQQVVSDLRHLGMVFAFEVFIQTKERLSLAVFKKTLKKGLLLRPLNNTIYLMPPYIITHEEVKKAVAGLVEILDELRKG | failed |
| QESVEDSLATVKVVLIPVGQEIVIPFKVDTILKYLKDHFSHLLGIPHSVLQIRYSGKILKNNETLVQHGVKPQEIVQVEIFSTNPDLYPVRRIDGLTDVSQIITV | not failed |
| MTQKNVITEVFDIVFIFVLAFACVVIPTVLQGAVLVSWEEGGAGIGFVWDPVGFFSFLLVIVAFFAVILYHSVKHYRY | failed |
| NIEQLSQSLEHMANQAATLDRQRGEHHVPLFDERLFSCRSRLLTPCVKEAKSTLDAIIREQNENKLTALRAEYLTERLVAQIGAIQREISTTKIRKNEIKHSSHFRKPINVLYQELAQHQEWARRLREMVLEKERAVETAPSFMRAEAQKVLLATEQRLARCEAALLKLENQITHREK | failed |
| MRLLPRETGDGDRPRVARSARPRAGSAVEGALSAAQRPLRHGAYPRRATSPVARVRMVFLALVATLFALPALAEPKFPPLSGRVVDEAQVLSPDVERDLSDKLAALETRTGHQLVVATVSSLQGYPIEDYGYRLGRTWGIGDKDKDDGAILLVAPNDRQVRIEVGYGLEPVLTDALSSVIIQSAILPKFRDGDLSGGIVAGADAMIEQLGLPPEEAKARVADAARPERHEARGSPIVGFLILLFIIFVFSSLFRGRRGGLGSALPWIILSALNNSGRGGGGWGGGGGGGFSGGGGSFGGGGSSGRW | failed |
| MSLALLLGYELPLTGANAAYGRVFQEAARLQLDRFNAAGGVGGRPVDILYADSRDDADQARTIARAFVDDPRVVGVLGDFSSTVSMAAGSIYGKEGMPQLSPTAAHPDYIKISPWQFRAITTPAFEGPNNAAWMIGDGFTSVAVIGVTTDWGLSSAQAFRKAFELRGGAVVVNEEVPPGNRRFDDVIDEIEDEAPQAIYLAMAYEDAAPFLRALRARGSALPVYGSSALYSPKFIDLGGPAVEGVRLATAFVLGASDPVVVEFVSAYETLYGAIPTLFAAHGYDAVGIMLAAVGRAGPEVTRESLRDALAATDRYAGVTGITRFDPETRETTKILTRLVVREGDFRVIDREGHHHHHH | not failed |
| QGHWFAIHSGTLGIMVNVDALGGLPVPQSWADLLKPEYKGMVGYLDPSSAFVGYVSAVAINQAMGGSLDNFGPAIDYFQKLAKNSPIVPKQTAYARALSGELPILVDYDFNAYRARYKDKANVAFVIPKEGTIGVPYVMSMVAKAPHRANAEKVLDFVLSDAGQALWAKAYLRPVR | failed |
| MNLFYRCRFFLFNNKVKNRGRGNKVVTNSASAKACTILFNGNNNTVILGESASLRGCLIIMSGDDHVLEIGAHTSIYKSNIAFEDHHCLISIGDYTTIQENGGISAVEPYSKIIIGKRCMFSVDVDIRNTDSHSIIKLDTGERINPGKNIFIDDKVWLGAYVQVLKGVSIGNNSIVGIRSLVTKDIPSHALAVGVPAKVIKTNVDWREERI | failed |
| MKIQCDVCEKAPATLICCADEAALCAKCDVEVHAANKLASKHQRLFLDSLSTKFPPCDICLEKAAFIFCVEDRALLCRDCDEATHAPNTRSANHQRFLATGIRVALSSTSCNQEVEKNHFDPSNQQSLSKPPTQQPAAPSPLWATDEFFSYSDLDCSNKKEQLDLGELDWLAEMGLFGDQPDQEALPVAEVPELSFSHLAHAHSYNRPMKSNVPNKKQRLEYRYDDEEEHFLVPDLG | not failed |
| MSLIENLWRGICIISASEDAFSAGETIKEKLKSFEIPVVHYRYKDAEIETIWKCYDAIVFVMALEGATRIVCKYAKSKTEDPAIVCIDDKINYVIPLLGGHWGANDIARELSVILNSTPIITTAAEIKGKLSIERIANILIAKIINPENIVKINAALLRDESICIDGIDVNVNFPENIKVNSEECSYIISLRGDKEYKDKIVVWLKPLKISIGIGSKKDVKMEEIRDGIYKVLERLNLKRERIGIIASIREEVKKIADEFNVRFRLVNEEEINNFMNPCLTPPSKTLIEVGLKGVAEISALIAGGRNSKLILRKIAISRNSTIAVATYEGHHHHHH | not failed |
| MPVTETIPLHETARERYLNYALSVITSRALPDIRDGLKPVQRRILFAMFDSLNLYPSKRHRKSATVVGETMGKYHPHGDKAIYDAMVRMAQSFSLRAPLVDGHGNFGSLDGDSAAAMRYTEAKLQPLAMEMLEGLRDETVDYRDNFDGSLEEPVVLPARVPNLLVNGASGIAVGMATNIPPHNLGEVVDAALHMIEEPEVDTSTLVRDHIQGPDFPTGGRILNTQDELAEIYETGSGTIEMRGAYRTKGKTRAIIESVPYGVDKSKIVEEIADHIAEENVPQLSNVRDESTDDVRIVLELKRGSDTEAAMAYLFKHTKLQKRFHVNLTCLVPTESTDVKAPKQVDLRTILRYFLDFRLDVVTRRLQNELAELEARIHILEGFETIFDALDEAIEIIRASKNKADAAQRLMHRFQLDEEQTDAILETQLYKLSQMEIEAIRDELGEKRARAEGIRRLLDDEDARWGIVKDELQDIRDEYTDERRSTLVGPGADMEYTEEDYIVDEDVHVIVTRDGWVKRQGTYSDLDAIRTRDGDEVGWALAGSTRATVGFFTNYGTCYTTRITEIPSTTGYGDPVQKLFSFDDGEHVVGVVSFDDRALPDPVPAEPSEQGELFDPDDPDAPDQPYVVAISKGGQATRFTLDGYLEPSISTGRKYMRLEDGDEVARVHLARGDENICLASHDGRALVFPVHQVSVYKGPAKGVRAIRLEDNDRVLDFALSTRARDGLTVETNNGREEIVRTTKFDATNRGAKGTLVIKRGYFAEVFPEPVEVPLHEAA | failed |
| MEKTVIYLLEDGYVDFVVEKIRTKMEKLLEEKDKIFVVLAGGRTPLPVYEKLAEQKFPWNRIHFFLSDERYVPLDSDQSNFRNINEVLFSRAKIPSGNVHYVDTSLPIEKACEKYEREIRSATDQFDLAILGMGPDGHVASIFDLETGNKDNLVTFTDPSGDPKVPRVTLTFRALNTSLYVLFLIRGKEKINRLTEILKDTPLPAYFVRGKEKTVWFVGK | not failed |
| MLVLIMWLCQQRSCRRLKRGDPMAQFENNRQRLFVPAVAPLYNSTHDLVETILRVAAGLLLVTHGFGKIVNPFGAVGMVESLGFHPGVFWSPLLAATEFFGGILVAIGLFTRPASFAAMIVLLVTVYFHGIVKAEGLGGAEKSILWAAIFLFFAVRGGNRHSVDAKLTREF | failed |
| MANKNPLQKPFLFIILSINLIFLQAETTTQISTKKTYVIHMDKSAMPLPYTNHLQWYSSKINSVTQHKSQEEEGNNNRILYTYQTAFHGLAAQLTQEEAERLEEEDGVVAVIPETRYELHTTRSPTFLGLERQESERVWAERVTDHDVVVGVLDTGIWPESESFNDTGMSPVPATWRGACETGKRFLKRNCNRKIVGARVFYRGYEAATGKIDEELEYKSPRDRDGHGTHTAATVAGSPVKGANLFGFAYGTARGMAQKARVAAYKVCWVGGCFSSDILSAVDQAVADGVQVLSISLGGGVSTYSRDSLSIATFGAMEMGVFVSCSAGNGGPDPISLTNVSPWITTVGASTMDRDFPATVKIGTMRTFKGVSLYKGRTVLPKNKQYPLVYLGRNASSPDPTSFCLDGALDRRHVAGKIVICDRGVTPRVQKGQVVKRAGGIGMVLTNTATNGEELVADSHMLPAVAVGEKEGKLIKQYAMTSKKATASLEILGTRIGIKPSPVVAAFSSRGPNFLSLEILKPDLLAPGVNILAAWTGDMAPSSLSSDPRRVKFNILSGTSMSCPHVSGVAALIKSRHPDWSPAAIKSALMTTAYVHDNMFKPLTDASGAAPSSPYDHGAGHIDPLRATDPGLVYDIGPQEYFEFLCTQDLSPSQLKVFTKHSNRTCKHTLAKNPGNLNYPAISALFPENTHVKAMTLRRTVTNVGPHISSYKVSVSPFKGASVTVQPKTLNFTSKHQKLSYTVTFRTRFRMKRPEFGGLVWKSTTHKVRSPVIITWLPPL | failed |
| MPGIDFDALYRGESPGEGLPPITTPPWDTKAPKDNVIGWHTGGWVHGDVLDIGCGLGDNAIYLARNGYQVTGLDISPTALTTAKRRASDAGVDVKFAVGDATKLTGYTGAFDTVIDCGMFHCLDDDGKRSYAASVHRATRPGATLLLSCFSNAMPPDEEWPRSTVSEQTLRDVLGGAGWDIESLEPATVRRELDGTEVEMAFWNVRAQRRGS | failed |
| MNNTLLYVITVLIWGSTWIAINYQLGEVAAEVSIVYRFGLAALCMFAYCRFKKLPLKFSAKQHLQLSAFGLTLFGFNYYLLYNAQAHINSALTSIAFSTLMMINILNARVWFKTRISSRVYYGGALGLMGIVTLFWPQISNVHFGDSTLLGLGLCLIGVVFASTGNMISIKNQHDNMPVLPATAWGMMYGSLFMFVVALVQGQTFNFSYTFEYISSLLYLSIFGSVIAFGCYLTLLARIGAHKASYATIMFPAVAVVISSFFEGFIWDSYTFIGLSLMLAGNLVVLAKPGMLKRFNSTSLKQVSCSDAK | failed |
| MRILLVEDDELIGELLVKSLTSQHYTVDFAKDGQEGWDFAELYTYDLILLDLILPKLDGISFCRQLRASGNQTPILLLTSQDTSITKVTGLDAGADDYVAKPFDFQELLARIRALLRRGGSALPPLLEWNNLRLDPSTCEVACDGKLLHLTPKEYGLLELFLRNSHRIFSCSALIDQLWSFEEPPTEDTVRSHIKGLRQKLKAAGVVEDPIDTVYGIGYRLKPVQPGREEELNTEKVVAAIANPVENEVRKVWEDVVEKIEQRVAVIEQASHKLLQNKVSEEILSKAKVEAHKLAGSLGMFGSDEGSQIAQEIESLLDNGKKLKASGGKHLGQVVEALHQELENLKSGYKTELSVVETKADDRPLVLVIDQDQELVRESRSQGSEAIAPGQLTDARVMIVDDDPQILTTLQTLLSAWGIKVYTLPHPQGFLAARLGNLAEIDTLTLVANRRKSTQELNHYLQWCHTHQQTLSFAVVKLDGLKQINYNYGHEIGDRVLSQLGELLRQMFHSQDVVGRWGGTEFILGMAGITKGEGVRRLGELLKTFRQIEFINTSNQSFHATLSAAVVEYPQDGDKLEVLYQAADIVLHQSKATGRNRVLSS | failed |
| MSAECWAALLHDPMTLDMDAVLSDFVRSTGAEPGLARDLLEGKNWDLTAALSDYEQLRQVHTANLPHVFNEGRG | not failed |
| MNLFRKISEKLKSYEDWVTEANYYLDEGIYDKAVECYLKALEKKNTNPIDWFNLAYALYHLEKYDSALEAINEALKISPSNIYFAYLKGLIHYKRGEIILAYKYLKKASEKIKNEELFEILGDISVKYGRYEEALKYYLKSYKMANSKNLNALFKAGKIYLLFGDIDKAYDAFNEILQQNPSHECKKIVECMENVVNAINSYEDLNNGLTMIKNKDYIGALKIFNKVLQIDENSDISYYYKSVIAEIFEEYKKALEYIDKSISIFNRSLYYAKKGDILYKLGDEEGAIEAYNKAIKLNSQNPYAYFGLAILYYRKGELEKSSNFFDKVLETYLEELSEEDISALNLYSLIGKAETTGIPKYYHEAMKYVDNLINLENSSRWWYVKGYIYYKLGNYKDAYESFMNALRVNPKDISTLKSLAIVLEKSGKIDEAITTYTKILKIVNSLQFTCEIDNILEKLRSRKPTNLEIPSVLFDIPVMYHKPNITCFYASNLWKYMANNNPIGAYIYLSFIESYISLDEISQMVNDIKSKLSLEMYRYCELIDDYKSDESVLMQIKELLQKLGCML | failed |
